Measured values: the Human Domainome abundance scans (Beltran et al. 2025)
± gives the uncertainty stated by the source.

B1: Cold shock protein CspB, residues 1 to 66; numbered along this chain, P41016 (parent)
chain: MQRGKVKWFNNEKGYGFIEVEGGSDVFVHFTAIQGEGFKTLEEGQEVSFEIVQGNRGPQAANVVKL

Variants of: B1
Experiment: abundance fitness (aPCA) (normalised: wild type 0, dead -1); higher = more abundant; growth selection in yeast, the domain comes from the species named
Conditions: Bacillus caldolyticus

Variant	abundance fitness
V20N	-0.028 ± 0.094
V20K	0.055 ± 0.056
V20P	0.018 ± 0.041
V20L	0 ± 0.029
W8G	-0.304 ± 0.2
W8C	-0.046 ± 0.12
G44F	-0.126 ± 0.059
G44H	0.014 ± 0.083
G44S	-0.029 ± 0.042
G44Y	-0.066 ± 0.066
F27P	-0.161 ± 0.042
F27R	-0.176 ± 0.028
F27H	-0.075 ± 0.077
F27I	-0.208 ± 0.056
F27Q	-0.208 ± 0.04
Q34F	0.052 ± 0.14
Q34W	-0.049 ± 0.043
Q34R	0.001 ± 0.034
E46M	0.006 ± 0.048
E46I	-0.071 ± 0.058
E46C	-0.046 ± 0.053
E46S	0.015 ± 0.034
E46L	0.014 ± 0.03
E46P	-0.023 ± 0.049

Variant	abundance fitness
A61F	-0.06 ± 0.047
A61Q	0.012 ± 0.047
A61L	-0.067 ± 0.044
A61C	-0.03 ± 0.047
A61R	0.015 ± 0.035
Q59W	-0.029 ± 0.036
D25M	-0.153 ± 0.043
D25G	-0.257 ± 0.047
D25I	-0.214 ± 0.063
D25A	-0.113 ± 0.04
D25K	-0.093 ± 0.046
E12T	0.034 ± 0.037
E12Y	0.016 ± 0.045
E12N	0.042 ± 0.066
E12H	0.009 ± 0.054
E12K	0.077 ± 0.074
E12V	-0.064 ± 0.032
E12P	0.036 ± 0.032
F49L	-0.007 ± 0.029
F49I	-0.123 ± 0.08
F49K	-1.08 ± 0.13
F49P	-0.984 ± 0.079
F49M	-0.002 ± 0.044
E21M	-0.051 ± 0.069

Variant	abundance fitness
E21W	-0.033 ± 0.044
E21Y	-0.022 ± 0.042
E21F	-0.052 ± 0.054
E19F	-0.048 ± 0.05
E19T	-0.029 ± 0.064
E19P	-0.316 ± 0.037
E19R	0.008 ± 0.037
E19I	-0.021 ± 0.059
E19K	0.031 ± 0.078
I18N	-0.85 ± 0.13
I18A	-0.272 ± 0.039
I18F	-0.297 ± 0.044
I18M	-0.208 ± 0.039
G22M	-0.01 ± 0.047
G22W	-0.019 ± 0.036
G22T	0.025 ± 0.048
I51W	-0.041 ± 0.039
I51C	0.031 ± 0.084
I51N	-0.071 ± 0.074
I51Q	0.007 ± 0.047
I51V	0.009 ± 0.049
I33Q	-0.381 ± 0.04
I33R	-0.484 ± 0.039
I33M	-0.144 ± 0.04

Variant	abundance fitness
I33G	-0.41 ± 0.033
I33F	-0.111 ± 0.046
T31E	-0.087 ± 0.068
T31R	-0.044 ± 0.028
T31A	-0.134 ± 0.049
T31K	-0.066 ± 0.054
T31W	-0.289 ± 0.035
V52T	0.012 ± 0.027
V52Q	-0.001 ± 0.054
V52C	-0.014 ± 0.077
V52I	-0.018 ± 0.048
V52G	-0.029 ± 0.035
L66E	-0.01 ± 0.12
L66F	0.033 ± 0.086
L66H	-0.214 ± 0.11
L66M	-0.018 ± 0.057
L66D	-0.101 ± 0.18
L66V	0.025 ± 0.063
L66I	-0.044 ± 0.083
L66C	-0.067 ± 0.084
G16R	-1.08 ± 0.056
G16W	-1.18 ± 0.13
G57H	-0.195 ± 0.061
G57L	-0.158 ± 0.034

Variant	abundance fitness
G57W	-0.256 ± 0.049
G57F	-0.237 ± 0.052
G57T	-0.089 ± 0.049
G57I	-0.231 ± 0.045
S48Y	0.022 ± 0.069
S48Q	-0.007 ± 0.052
S48A	0.003 ± 0.041
S48P	-0.847 ± 0.061
S48W	-0.074 ± 0.066
S48N	-0.099 ± 0.089
S48G	-0.005 ± 0.043
S48H	-0.023 ± 0.068
E42Y	-0.036 ± 0.059
E42M	-0.006 ± 0.048
E42V	-0.008 ± 0.028
E42C	-0.013 ± 0.064
E42I	-0.051 ± 0.055
E42H	0.008 ± 0.11
F30D	-0.188 ± 0.068
F30P	-0.227 ± 0.05
F30Y	0.011 ± 0.041
F30C	-0.091 ± 0.052
M1Q	-0.021 ± 0.2
M1C	-0.102 ± 0.1

Variant	abundance fitness
M1A	-0.046 ± 0.047
M1D	-0.086 ± 0.085
M1W	-0.086 ± 0.072
M1H	0.016 ± 0.18
F17D	-0.558 ± 0.072
F17V	-0.165 ± 0.027
F17I	-0.128 ± 0.063
F17H	-0.151 ± 0.065
F17M	-0.139 ± 0.048
F17T	-0.126 ± 0.053
G4T	-0.77 ± 0.039
G4S	-0.109 ± 0.021
G4N	-0.368 ± 0.029
G4M	-0.997 ± 0.066
V6G	-0.452 ± 0.026
V6S	-0.324 ± 0.036
V6L	-0.158 ± 0.03
V6C	-0.058 ± 0.059
N62D	0.189 ± 0.42
S24W	-0.031 ± 0.039
Q2T	0.029 ± 0.056
Q2V	0.018 ± 0.039
Q2E	0.011 ± 0.067
Q2F	0.048 ± 0.069

Variant	abundance fitness
Q2I	0.028 ± 0.078
G54A	-0.028 ± 0.061
G54I	-0.227 ± 0.13
G54V	-0.171 ± 0.068
G54H	0.045 ± 0.11
G54W	-0.18 ± 0.036
G54F	-0.127 ± 0.075
T40R	-0.043 ± 0.032
T40W	-0.076 ± 0.051
T40V	-0.043 ± 0.041
T40P	-0.227 ± 0.036
T40C	-0.006 ± 0.062
T40N	-0.078 ± 0.048
T40K	-0.065 ± 0.048
T40E	-0.027 ± 0.061
T40Y	-0.037 ± 0.051
T40A	-0.022 ± 0.038
Y15V	-0.155 ± 0.035
Y15K	-0.189 ± 0.044
Y15H	-0.089 ± 0.072
Y15M	-0.138 ± 0.047
Y15R	-0.227 ± 0.025
Y15S	-0.22 ± 0.028
Y15L	-0.117 ± 0.026

Variant	abundance fitness
N11L	-0.003 ± 0.036
N11C	-0.051 ± 0.054
N11M	-0.042 ± 0.048
N11K	-0.047 ± 0.078
N11A	-0.052 ± 0.046
N11Q	-0.138 ± 0.063
N11Y	-0.111 ± 0.074
N11S	-0.033 ± 0.039
G37Y	-0.074 ± 0.059
G37F	-0.153 ± 0.055
G37T	-0.069 ± 0.041
G37D	-0.133 ± 0.074
G37L	-0.126 ± 0.029
G14F	-0.484 ± 0.06
G14I	-0.902 ± 0.077
G14V	-0.778 ± 0.04
G14R	-0.062 ± 0.031
G14M	-0.202 ± 0.053
G14A	-0.175 ± 0.035
V26F	-0.11 ± 0.054
V26C	-0.053 ± 0.048
V26K	-0.251 ± 0.059
A60V	-0.254 ± 0.031
A60L	-0.636 ± 0.033

Variant	abundance fitness
A60C	-0.115 ± 0.085
A60S	-0.14 ± 0.034
A60G	-0.171 ± 0.037
A60N	-1.08 ± 0.21
A60T	-0.487 ± 0.043
G35Q	0.001 ± 0.045
G35C	0.02 ± 0.069
G35W	-0.134 ± 0.044
G35K	-0.112 ± 0.056
K5E	-0.065 ± 0.056
K5P	-0.22 ± 0.041
K5V	-0.03 ± 0.039
K5I	-0.037 ± 0.05
K5N	-0.029 ± 0.063
K5A	-0.042 ± 0.042
K5H	0.005 ± 0.065
V63T	-0.432 ± 0.053
V63Y	-0.798 ± 0.082
V63H	-0.771 ± 0.1
V63C	0.009 ± 0.083
V63L	-0.018 ± 0.03
V63A	-0.205 ± 0.044
V28Y	-0.27 ± 0.061
V28T	-0.05 ± 0.047

Variant	abundance fitness
V28S	-0.355 ± 0.03
V28R	-0.993 ± 0.05
N10Y	-0.214 ± 0.062
N10A	-0.047 ± 0.034
N10K	-0.038 ± 0.056
N10Q	-0.025 ± 0.049
N10S	0.01 ± 0.034
N10M	-0.083 ± 0.053
N10I	-0.023 ± 0.074
K13E	-0.133 ± 0.05
K13M	-0.019 ± 0.042
K13S	-0.044 ± 0.038
K13Y	-0.03 ± 0.083
K13Q	-0.072 ± 0.052
K13R	-0.007 ± 0.037
K13G	-0.131 ± 0.043
K13L	0.014 ± 0.027
Q45L	-0.021 ± 0.03
Q45C	-0.031 ± 0.07
Q45Y	-0.072 ± 0.12
Q45F	-0.097 ± 0.082
Q45T	-0.038 ± 0.05
Q45N	-0.005 ± 0.082
K7A	-0.002 ± 0.03

Variant	abundance fitness
K7H	-0.088 ± 0.046
K7L	-0.058 ± 0.027
K7C	-0.003 ± 0.035
K7R	-0.045 ± 0.034
K7E	-0.225 ± 0.055
R3N	-0.061 ± 0.067
R3G	-0.004 ± 0.031
R3W	-0.117 ± 0.041
V47Q	-0.935 ± 0.36
V47G	-0.623 ± 0.26
V47I	0.065 ± 0.14
V47L	-0.332 ± 0.23
F9C	-0.35 ± 0.038
F9Q	-0.854 ± 0.073
F9N	-0.854 ± 0.11
F9E	-0.827 ± 0.088
F9V	-0.239 ± 0.039
F9Y	-0.119 ± 0.061
H29L	-0.48 ± 0.12
H29T	-0.28 ± 0.12
H29Y	-0.149 ± 0.052
H29M	-0.274 ± 0.13
H29A	-0.532 ± 0.39
V64T	-0.012 ± 0.067

Variant	abundance fitness
V64P	-0.731 ± 0.089
V64R	-0.003 ± 0.035
V64Q	0.032 ± 0.088
V64E	-0.003 ± 0.056
N55K	0.018 ± 0.15
N55Q	-0.042 ± 0.18
N55V	0.005 ± 0.099
E50R	-0.002 ± 0.036
E50M	-0.017 ± 0.058
E50I	-0.049 ± 0.066
E50W	-0.013 ± 0.043
E50S	-0.029 ± 0.036
E50L	-0.016 ± 0.035
Q53E	0.003 ± 0.052
Q53A	-0.002 ± 0.045
Q53H	-0.046 ± 0.08
Q53R	-0.002 ± 0.043
P58E	-0.017 ± 0.058
P58A	0 ± 0.047
P58K	-0.036 ± 0.052
P58F	-0.046 ± 0.055
P58S	-0.026 ± 0.038
A32Y	-0.263 ± 0.063
A32R	-0.084 ± 0.036

Variant	abundance fitness
A32L	-0.472 ± 0.025
A32K	-0.044 ± 0.049
A32H	-0.099 ± 0.061
K65W	-0.145 ± 0.055
K65N	-0.051 ± 0.057
K65E	-0.03 ± 0.084
K65V	-0.015 ± 0.056
K65R	0.004 ± 0.044
R56K	0.003 ± 0.057
R56C	-0.097 ± 0.057
R56M	-0.068 ± 0.064
R56S	-0.088 ± 0.038
R56Q	-0.044 ± 0.062
F38E	-0.078 ± 0.043
F38K	-0.049 ± 0.051
F38W	0.024 ± 0.046
G23F	-0.034 ± 0.049
G23S	0.011 ± 0.034
G23C	0.029 ± 0.059
G23N	-0.066 ± 0.081
G23K	0.052 ± 0.057
K39D	-0.148 ± 0.068
K39G	-0.154 ± 0.045
K39Y	-0.148 ± 0.062

Variant	abundance fitness
K39L	-0.059 ± 0.034
K39Q	-0.071 ± 0.044
K39M	-0.137 ± 0.038
K39S	-0.072 ± 0.03
L41K	-0.721 ± 0.047
L41Y	-0.368 ± 0.061
L41I	0.003 ± 0.064
L41W	-0.359 ± 0.033
L41H	-0.616 ± 0.063
E36N	-0.037 ± 0.11
E36D	-0.019 ± 0.063
E36F	-0.023 ± 0.047
E36H	-0.047 ± 0.085
E36W	-0.017 ± 0.043
E36S	-0.007 ± 0.036
E36C	-0.042 ± 0.058
E36M	-0.085 ± 0.046
E36P	-0.017 ± 0.043
E43H	0.03 ± 0.087
E43I	-0.031 ± 0.065
E43L	-0.012 ± 0.034
E43P	0.004 ± 0.045
